Data published in paper doi:10.1101/2025.09.18.675241 (bioRxiv, 2025).
One block for each molecule: values may come before it.

What was measured:
[1] = target: FAM171A2 ectodomain (K30-T315), Fc cleaved off (human) (UniProt A8MVW0); experiment: AUC
[2] = target: FAM171A2 ectodomain (K30-T315), Fc cleaved off (human) (UniProt A8MVW0); experiment: SEC-MALS
[3] = target: FAM171A2 ectodomain (K30-T315), Fc cleaved off (human) (UniProt A8MVW0); experiment: SEC-SAXS
[4] = target: FAM171A2 Ecto-AP (human) (UniProt A8MVW0); experiment: ELISA
[5] = target: the molecule itself; experiment: AUC
[6] = target: the molecule itself; experiment: SEC-MALS
[7] = target: the molecule itself; experiment: AUC; remark: listed apart in the source
[8] = target: the molecule itself; experiment: SEC
[9] = target: T1, FAM171A1 Ecto-AP (human, UniProt Q5VUB5 23-303); experiment: ELISA
T1 sequence: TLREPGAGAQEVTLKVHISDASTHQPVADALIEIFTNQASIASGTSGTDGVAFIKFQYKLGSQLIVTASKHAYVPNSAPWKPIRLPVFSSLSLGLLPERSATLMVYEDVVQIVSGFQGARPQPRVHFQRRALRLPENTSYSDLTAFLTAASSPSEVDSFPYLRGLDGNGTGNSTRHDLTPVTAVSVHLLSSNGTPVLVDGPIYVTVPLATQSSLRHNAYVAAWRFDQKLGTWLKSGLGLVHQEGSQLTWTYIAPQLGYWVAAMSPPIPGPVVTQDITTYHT

- percent of the mixture as trimer [1]: 75%
- stoichiometry N [1]: 3
- stoichiometry N [2]: 3
- stoichiometry N [3]: 3
Molecule: FAM171A2 ectodomain (K30-T315), Fc cleaved off (from UniProt A8MVW0 30-315) (domain or fragment)

- Kd [4]: 389 nM
Molecule: FAM171A2 Ecto-Fc (from UniProt A8MVW0 30-315) (Fc fusion)

B1: FAM171A1 ectodomain (T23-T303), Fc cleaved off (domain or fragment)
chain: TLREPGAGAQEVTLKVHISDASTHQPVADALIEIFTNQASIASGTSGTDGVAFIKFQYKLGSQLIVTASKHAYVPNSAPWKPIRLPVFSSLSLGLLPERSATLMVYEDVVQIVSGFQGARPQPRVHFQRRALRLPENTSYSDLTAFLTAASSPSEVDSFPYLRGLDGNGTGNSTRHDLTPVTAVSVHLLSSNGTPVLVDGPIYVTVPLATQSSLRHNAYVAAWRFDQKLGTWLKSGLGLVHQEGSQLTWTYIAPQLGYWVAAMSPPIPGPVVTQDITTYHT
modifications: four N-linked glycosylation sites occupied by Man5GlcNAc2 (from HEK293S GnTI- cells)
- stoichiometry N [5]: 2.6 monomers
- stoichiometry N [6]: 3
- stoichiometry N [7]: 2.7 monomers

B2: FAM171A1 ectodomain L255N (domain or fragment)
chain: TLREPGAGAQEVTLKVHISDASTHQPVADALIEIFTNQASIASGTSGTDGVAFIKFQYKLGSQLIVTASKHAYVPNSAPWKPIRLPVFSSLSLGLLPERSATLMVYEDVVQIVSGFQGARPQPRVHFQRRALRLPENTSYSDLTAFLTAASSPSEVDSFPYLRGLDGNGTGNSTRHDLTPVTAVSVHLLSSNGTPVLVDGPIYVTVPLATQSSLRHNAYVAAWRFDQKLGTWNKSGLGLVHQEGSQLTWTYIAPQLGYWVAAMSPPIPGPVVTQDITTYHT
modifications: introduced N-linked glycosylation site
- stoichiometry N [8]: 3

- Kd [9]: 9 ± 2 nM
B3: FAM171A1 Ecto-Fc (Fc fusion)
chain: TLREPGAGAQEVTLKVHISDASTHQPVADALIEIFTNQASIASGTSGTDGVAFIKFQYKLGSQLIVTASKHAYVPNSAPWKPIRLPVFSSLSLGLLPERSATLMVYEDVVQIVSGFQGARPQPRVHFQRRALRLPENTSYSDLTAFLTAASSPSEVDSFPYLRGLDGNGTGNSTRHDLTPVTAVSVHLLSSNGTPVLVDGPIYVTVPLATQSSLRHNAYVAAWRFDQKLGTWLKSGLGLVHQEGSQLTWTYIAPQLGYWVAAMSPPIPGPVVTQDITTYHT

B4: FAM171A1 ectodomain Y241S (domain or fragment)
chain: TLREPGAGAQEVTLKVHISDASTHQPVADALIEIFTNQASIASGTSGTDGVAFIKFQYKLGSQLIVTASKHAYVPNSAPWKPIRLPVFSSLSLGLLPERSATLMVYEDVVQIVSGFQGARPQPRVHFQRRALRLPENTSYSDLTAFLTAASSPSEVDSFPYLRGLDGNGTGNSTRHDLTPVTAVSVHLLSSNGTPVLVDGPIYVTVPLATQSSLRHNASVAAWRFDQKLGTWLKSGLGLVHQEGSQLTWTYIAPQLGYWVAAMSPPIPGPVVTQDITTYHT
modifications: introduced N-linked glycosylation site
- stoichiometry N [8]: 3

B5: FAM171A1 ectodomain Y241S/L255N (domain or fragment)
chain: TLREPGAGAQEVTLKVHISDASTHQPVADALIEIFTNQASIASGTSGTDGVAFIKFQYKLGSQLIVTASKHAYVPNSAPWKPIRLPVFSSLSLGLLPERSATLMVYEDVVQIVSGFQGARPQPRVHFQRRALRLPENTSYSDLTAFLTAASSPSEVDSFPYLRGLDGNGTGNSTRHDLTPVTAVSVHLLSSNGTPVLVDGPIYVTVPLATQSSLRHNASVAAWRFDQKLGTWNKSGLGLVHQEGSQLTWTYIAPQLGYWVAAMSPPIPGPVVTQDITTYHT
modifications: two introduced N-linked glycosylation sites
- stoichiometry N [8]: 3
